Substitutions are numbered along the chain they refer to.
Columns and labels:
[1] = biological target: T1, gastrin-releasing peptide receptor (GRPR) (UniProt P30550 1-384, limits assumed); test: Scatchard plot experiments, GRPR on cancer cell lines
T1 construct: whole, on cells; Endogenous receptor on PC3 and H441 cells, xenograft tumors or PC3 cell lysate; the cell lines are human; also called GRP receptor

[2] = biological target: T1, gastrin-releasing peptide receptor …; test: Scatchard plot from absorbance-based assay on wells of PC3 cell lysate; Kd of this variant not given

T1 sequence (P30550 whole entry): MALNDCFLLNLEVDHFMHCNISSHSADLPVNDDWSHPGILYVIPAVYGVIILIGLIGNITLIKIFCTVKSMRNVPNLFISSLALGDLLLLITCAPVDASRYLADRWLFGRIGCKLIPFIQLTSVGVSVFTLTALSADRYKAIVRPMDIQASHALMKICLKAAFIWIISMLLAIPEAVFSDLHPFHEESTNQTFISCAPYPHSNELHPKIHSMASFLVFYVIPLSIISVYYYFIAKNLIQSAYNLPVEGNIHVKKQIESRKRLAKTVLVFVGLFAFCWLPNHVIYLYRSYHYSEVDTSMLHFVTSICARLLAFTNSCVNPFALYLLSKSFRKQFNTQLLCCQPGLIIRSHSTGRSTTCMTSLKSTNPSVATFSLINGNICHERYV

B1: ProCA1.B10 (designed binder)
chain: RDSGTVWGALGHGIELNIPNFQMTDDIDEVRWERGSTLVAEFKRKMKPFLKSGGSGGGNQWAVGHLMGGSGGAFEIDANGDLDIKNLTRDDSGTYNVTVYSTNGTRILNKALDLRILE
B1: binds [1].

B2: ProCA1.G10 (designed binder)
chain: B1 chain with Q60H
B2: binds [2].

Reference: patent publication US9956304 (GEORGIA STATE UNIVERSITY RESEARCH FOUNDATION, dated 2018)
